This is an account of results in the DeepSol protein solubility set.

This data set is described as follows: soluble on expression in E. coli; label from the status in PepcDB or PDB records.
“MNKENIIADAPSDVVKTVQQQVHLNQDEYKYLKQVEQILREGTRRDDRTGTGTISIFGMQSKYCLRNGTIPLLTTKRVYWKGVLEELLWFISGSTDGKLLMEKNVKIWEKNGDRAFLDNLGFTSREEGDLGPVYGFQWRHFGAKYVDCHTDYSGQGVDQLAEVIRQIKEQPDSRRIIMSAWNPSDLGQMVLPPCHTMCQFYVDNGELSCQLYQRSGDMGLGVPFNLASYGLLTHMIAKVCGLKPGTLVHTLGDAHVYSNHVDALKIQLDREPYAFPKIRFTRDVASIDDFTSDMIALDDYKCHPKIPMDMAV”: the “soluble on expression in E. coli” value is reported as “soluble”.

For the sequence “MNKFKLGSDFDHLVNSLSDVELLNLFIQSCSQTTINGVPVPRFPPEEIQKQFVGASYEHALYEAYLFYRHIKEYAQNLGVPLNKESKVLDFGCGWGRIIRFLFKDASDQNLLGIDVDPAMITLCNETLGRGIYKTASPHPPVEFISDNSLDIIFAYSVFSHLSEATAENWVKEFSRVLRPGGIFIATTQARYFLDFCQQFQEHPELIQTGWHKTLSQAFPDIHRAISDYENGKFVHSPTGAGDVRNSSFYGETVIPRTYIENHYEKYLKLQDFFDDVNRLPQALFVLQKILEHHHHHH”, the “soluble on expression in E. coli” value is listed as “not soluble”.

As for “MNKGRVTQIMGPVVDVKFDGGKLPEIYNALTVKQSNENGTSINLTFEVALHLGDDTVRTVAMSSTDGLVRGTEVEDTGKAISVPVGDATLGRVFNVLGDAIDLDGEVPADVRRDPIHRQAPAFEELSTKVEILETGIKVVDLLAPYIKGGKIGLFGGAGVGKTVLIQELINNIAQEHGGISVFAGVGERTREGNDLYHEMSDSGVIKKTAMVFGQMNEPPGARQRVALTGLTMAEHFRDEQGQDVLLFIDNIFRFTQAGSEVSALLGRMPSAVGYQPTLATEMGQLQERITSTNKGSITSIQAVYVPADDYTDPAPATTFAHLDATTNLERRLTQMGIYPAVDPLASTSRALSPEIVGEEHYEVARQVQQTLQRYKELQDIIAILGMDELSEEDKLVVHRARRIQFFLSQNFHVAEQFTGQKGSYVPVKETVRGFKEILEGKYDDLPEDAFRLVGGIEEVIENAKKMMA”, the “soluble on expression in E. coli” value is on record as “not soluble”.

“MNKIYIKNMVCDRCIMVVTNILSQLELKVAHIALGEIVLLCPPTEKQMQELLDQLQKVGFEIIDDKRSRIVEQIKTCIRELVHRKNGMLKTNLSDYLCENIHLDYSYLSGLFSENEGRTIEKYFIYQKIERVKELLVYDDMQLSEIAYIMNYSSVAHLSNQFKKVTGFTPTYFKQMSTQCRKPLDKL”: the “soluble on expression in E. coli” value is given as “not soluble”.

Take “MNKKVGESTLYEWLVSYQKLEQEIYYLDWELETYKKELERWCDPEDLGRYTLTKDSKASKLEDIIEDLEKRLAWKMNSIYDLRKLVYSFKGLDQKILVAKYIEGLSLKQIAGEFGHSYGYIRNKHNQILKKIEKSDNDVTIPIDKS”: the “soluble on expression in E. coli” value is listed as “not soluble”.

For the sequence “MNKQRLITELQSKGLRLVDPNAKDLGRKGGAGPSDHRAVTVDGTTVMVPIYTSTAAASPYSINLASMPPKTVLSKGDEEIAAIALPRQPKFYDLKTADGIPYSHIALLHSNNVLATTVQQTCIRYRDESTVCQFCAIEKSLDAGRTITRKLPEQLAEVTEAAVRLDGIEQVIMTTGTPNSGDRGAAYLTKCAAAIKARVNIPIQAQCEPPDDFIWFERMKAAGVDSLGMHLEAVDPDVRAKIMPGKAEVPVSYYYEAYEAAVKVFGWGQVSTYLLAGLGDSFETLVEASEKLVNMGVYPFVVPFVPISETPLANHPAPDSDFMFALYQRVGTIIKQSQISSVDMKAGCAKCGACSALSTFAKLEHHHHHH”, the “soluble on expression in E. coli” value was “not soluble”.

On to “MNLDAPRVLVLNAAYEVLGLASIKRAVLLVLGGGAEMVSESGLYLNTPSTRIPVPSVVRLKRMVRRRPGRVPLNRRNVLRRDRYTCQYCGQKGGELTVDHVLPKSRGGKSTWDNLVAACRSCNLRKGDRTPEEAGMRLLRPPKPPRVPLFLLDLKEVPPDWRPFVEGLLGLEHHHHHH”, for which the “soluble on expression in E. coli” value was “not soluble”.

For the sequence “MNLEHHSNHYQPTCSIEALQARAKLYQTIRTFFAERGVLEVETPIISQAGVTDVHLASVKALRHIEGKERTQYLQTSPEFAMKRLLASGSGPIYQLCKVFRDDEHGRKHNSEFTMLEWYRPEFDLKDLMHETADLLETCLKQRFDEIRPMILSYKHAFQDRLEINPLQATLKQLKDTADRVGLNLDLGNDRLAYIDLLFSHIVEPSLGFDTPVFLTDFPPEMASLAKVRIDEDGEEVAARFEVYIEGLELANAYDELLDANILRARFEADNLERKLQGLAEMPLDENLLAALPHMPACAGIALGVDRLLMIATRQLKIEQVIAFPAAIA”, the “soluble on expression in E. coli” value is reported as “not soluble”.

As for “MNLESITVVLPTRNEAGNIGAFLASLPQAVHLIVVDASEDETPDIIQRERPARTQVLRRRSTITQARQLGAEAALTDWLLFTDADIVFPDGYFDALERVMDAAVVYGPKLSRDRFAAYYRWFGYGQQCSHWLGIPAATGSNLLVRKDALIAVGGFDPALVCNEDSELVWRIKRAGYRIRFEPSLPVYARDHRRLDSGLWRKTCHSVFRCALLYWDLMPARWRGADWGYWSPQQSGRAPGVSRVELEHHHHHH”, the “soluble on expression in E. coli” value was “not soluble”.

On to “MNLGTLVSETRNPQTMDLDALPTPELVKRFNEQDTLVAEAVKATLPDVARAVDAAAAALKSGGRIIYMGAGTSGRLGVLDASECPPTFGVPHGLVVGLIAGGPGALLKAVEGAEDSQQAGEDDLVALNLQEQDLVVGLAASGRTPYVIGGLRYARQSGCTTVAVSCNPDSPIAREANIAISPVVGPEALTGSTRLKSGTAQKMVLNMISTGAMVKFGKVYQNLMVDMKATNVKLVDRACRMVVEATGIGREEAEALLKQTDFEVKPAILMALTGLDAAAAREKLAAHQGFLRAALEH”, for which the “soluble on expression in E. coli” value is listed as “not soluble”.

Regarding “MNLHTKTWVQRLPVPIDVAWDFFSQPGNLARITPPEMMLKAEGGNAGTAIYEGMKLNFVLYPFMMIPVRWTTEIMKVSKPDFFEDRQLSGPYEQWYHRHLFRDIEGGTEMTDIVEYALPFDLFGEVVEALIVGPRLDEVFEYRRCRVAEILGEMASETRLEHHHHHH”, the “soluble on expression in E. coli” value is “soluble”.

In the case of “MNLIEKTREFAATFHEGEPSSHDMSHINRVEALCMEIQKEEGGDLLILSLAALLHDVGVIKEHEEGGDHALYSSEIAIEFLSRAGVEMKTIEAVAYCIQTHRFSGGKRPETVEARILQDADRLDALGAIGIFRSILSMGALRMLKHTTGLDKGSSKKTVYIEDPVEGFNEYMRYKPFTIPERLNTVTAKRIAGERLKIMHIYLEALNLEAGNGKHKPLEHHHHHH”, the “soluble on expression in E. coli” value is “soluble”.

As for “MNLKDPICAIATPPGKGAIGVVRLSGEGALEIAARVWRGKDPRRLKGGRFALGEVVDPKTGEAIDQAILLVFRAPRSYTGEDLVEFQTHGSPAVLRRVMEVLVAEGARPAGRGEFTFRAYLNGKMDLAQAEAVLALIEAEGELARRQALRALEGALSRRIEALENRLLNLLAHIQALLDYPEEGVEPLEAERTIREVLAEVEALLAQAKASRLAQKGARLALIGAPNAGKSSLLNALLGYERALVSPIPGTTRDYLEAPLELFGIPLVAVDTAGVRETEDPVERMGVERALGIAEEADLVLYVVDRSQPKPAPPPLPWARTLKVATKSDLPPAWEDPEFLPVSSLTGEGLDRLKEAVREALLGREGGEVLLTERQVEALLRARERLEEALSLPEDLMGLALEEAARALALLTGKEVAEEVVARVFQNFCVGK”, the “soluble on expression in E. coli” value is on record as “soluble”.

In the case of “MNLMTTITGVVLAGGKARRMGGVDKGLLELNGKPLWQHVADALMTQLSHVVVNANRHQEIYQASGLKVIEDSLADYPGPLAGMLSVMQQEAGEWFLFCPCDTPYIPPDLAARLNHQRKDAPVVWVHDGERDHPTIALVNRAIEPLLLEYLQAGERRVMVFMRLAGGHAVDFSDHKDAFVNVNTPEELARWQEKRSHHHHHH”, the “soluble on expression in E. coli” value is listed as “soluble”.

As for “MNLYRSRNFYARIRGDRALFTNPATKGGSERSSYSVPTRQALQGIIDGIYHKPTFTNVITEVKVVNQIQTELHGVRALLHDYSADLSYVSYLSDVEYLVKFHFIWNENREDLIQDRLPKKHEAIMERSIRKGGRRDIFLGTRECFGLVDEISQEEYETIPSYYNGVTIDLGIMFHSFAYPTSKDTPLKSYFTKTVMENGAIKFKPQSECEIVNTLSSYAFKSLGQLKSVDDEYVDDEYEEYEAMEKGEG”, the “soluble on expression in E. coli” value is recorded as “soluble”.

Consider “MNMNKTYIPKLDDLLGGGVKEGASIMFSASPGVDYEAFGYQMLNGRLDEGTRGFIFTNVEEPESIIYEFRSYGWDIESHIENGNLFFVDGSSPFLGMPSDQRYTVNDYSEIKDVVLNAINDIPGGVGIINNLSVIIDYLGNGDTLEIVEAWNRRASELDVNLVYLFTEWDYEPELIDKLRESMDCVVNLRTIEERVIIGQGFMVANSAWSEPPSTMVLFFVVQPGGVKVYVPKILVTGPYNSGKSSFVRAIATKSVSVDRKALSAFPTTIAMDIGHLEYKGFMADIFGTPGQERFDMILDVLSREAVGAFILLDSTAPETFARAKEMIRKTRAEAIPKVVVANKQDLPGALSPEEIREMMKLGADVPIVPASVTEGWGVRDALDTLLGLLYGGLEHHHHHH”, for which the “soluble on expression in E. coli” value is listed as “not soluble”.

On to “MNMSSEMLPASIESPNVEEKLGTSDGEEERQEPRVDAGAEPISKRQLKKLMKQKQWEEQREQRKEKRKEKRKRKKLERRQLESNSDGNDRKRVRRDVARSSLRLVIDCSFDDLMVLKDIKKLHKQIQRCYAENRRASHPVQFYLTSHGGQLKKNMDENDQGWVNWKDIHIKSEHYSELIKKEDLVYLTSDSPNVLKDLDESKAYVIGGLVDHSHHKGLTFKQATSYGIEHAQLPLADFVKMNSRKVLAVNHVFEIILEFLETRDWQEAFFTILPQRKGAVPAHKACESSPQDHQSLPEGWDSASEGESCRDNPDSPQKDEQGQQSSPVLQ”, for which the “soluble on expression in E. coli” value is reported as “soluble”.

Turning to “MNMVAQQMPSPEEIAAQLQMIRDQIAELQGVLAQLELRLRSVQAAKETVEKAAGQDGETLFPGDPELNTILKARLLEPGKAIVHLGLNVYAKLDTAKATEILAKKEDALKRSLETLKQELDKLSRTHDQYLQLLQALTAGQAAQQAGQQQKQGS”, the “soluble on expression in E. coli” value is “soluble”.

In the case of “MNNEPLRPDPDRLLEQTAAPHRGKLKVFFGACAGVGKTWAMLAEAQRLRAQGLDIVVGVVETHGRKDTAAMLEGLAVLPLKRQAYRGRHISEFDLDAALARRPALILMDELAHSNAPGSRHPKRWQDIEELLEAGIDVFTTVNVQHLESLNDVVSGVTGIQVRETVPDPFFDAADDVVLVDLPPDDLRQRLKEGKVYIAGQAERAIEHFFRKGNLIALRELALRRTADRVDEQMRAWRGHPGEEKVWHTRDAILLCIGHNTGSEKLVRAAARLASRLGSVWHAVYVETPALHRLPEKKRRAILSALRLAQELGAETATLSDPAEEKAVVRYAREHNLGKIILGRPASRRWWRRETFADRLARIAPDLDQVLVALDEPPAR”, the “soluble on expression in E. coli” value was “soluble”.

In the case of “MNNHFGKGLMAGLHAPYAYSAHHAVNFCSEYKRGFVLGFTHRMFEKTGDRQLSAWEAGILTRRYGLDKEMVMDFFKENHSGMAVRFFMAGYRLEG”, the “soluble on expression in E. coli” value is given as “not soluble”.

Turning to “MNNKRTKGENVYQLVQKRLKFLFNEFDNIYVSFSGGKDSGVLLNLCIQYIREHNLDRKIGVYHMDYEAQYQMTTEYVEQTFRENQDILEIYHVCVPFKVVTCASMFQTYWRPWDESMHAHWVRPMPKNCYKKEDFPFYNEEMWDYTFQTSFASWYHKKHDAVRTCCLVGIRTQESLDRWRTIHGNNRLNSYHNLMWTRRLGYDLYNAYPIYDWTTEDIWTAYARFKWPFNQMYELYYK”, the “soluble on expression in E. coli” value is given as “not soluble”.

For the sequence “MNNPKPCEWKSNELSRGYIADYKAFNFVDGEGVRCSLYVSGCPFHCEGCYNKAAQSFKYGKPYTKELEDDILKDIGHESVQGLTLLGGEPFLNTATCLSIVKRIRATYGETKDIWSWTGYTWDEMMQETADKLELLSLIDVLVDGRFEQKLFDPNLAFRGSSNQRIIDVQKSLAAGEVVLYELLEHHHHHH”, the “soluble on expression in E. coli” value was “not soluble”.
